Results from patent US20090104149A1.

Molecular target: human recombinant cyclophilin (human) (UniProt P62937)
Test: competitive ELISA, human recombinant cyclophilin on coated BSA-cyclosporin A; reference cyclosporin A

human recombinant cyclophilin (human), sequence (P62937 whole entry): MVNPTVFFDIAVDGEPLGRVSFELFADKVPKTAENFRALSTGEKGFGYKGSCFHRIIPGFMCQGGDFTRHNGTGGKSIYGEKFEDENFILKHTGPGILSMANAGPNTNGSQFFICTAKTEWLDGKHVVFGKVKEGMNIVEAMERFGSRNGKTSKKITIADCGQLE

Binding Ratio (BR), log10 of IC50 of test compound over IC50 of cyclosporin A [log10 ratio] | Substance
0.35 | [8′-hydroxy-MeBmt]^5-Ciclosporin (peptide)
0 | [Ethyl-Val]^4-Ciclosporin (peptide)
0.1 | [Ethyl-lle]^4-Ciclosporin (peptide)
-0.4 | [MeAla]^6-Ciclosporin (peptide)
0.1 | [MeVal]^4-Ciclosporin (peptide)
0.4 | [MeVal]^5-Ciclosporin (peptide)
-0.2 | [Melle]^4-Ciclosporin (peptide)
0.1 | [dihydro-MeBmt]^1-[γ-hydroxy-MeLeu]^4-Ciclosporin (peptide)
0.4 | [γ-hydroxy-MeLeu]^4-Ciclosporin (peptide)
0.15 | [γ-hydroxy-MeLeu]^9-Ciclosporin (peptide)
